Measured values reported in US20190041402A1 (GOVERNING COUNCIL OF THE UNIVERSITY OF TORONTO, published 2019).

Biological target: T1, human FGFR1c ligand-binding domain (human, UniProt P11362 142-365)
T1 construct: range 142-365; also called FGFR1c alone
T1 sequence (looked up): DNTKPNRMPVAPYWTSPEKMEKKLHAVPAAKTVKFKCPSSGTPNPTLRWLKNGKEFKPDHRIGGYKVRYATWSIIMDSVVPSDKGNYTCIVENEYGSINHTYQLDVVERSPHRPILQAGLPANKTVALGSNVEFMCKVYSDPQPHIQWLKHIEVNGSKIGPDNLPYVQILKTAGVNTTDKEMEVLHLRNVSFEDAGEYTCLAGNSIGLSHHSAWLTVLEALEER
Assay: Fab-phage ELISA, immobilised antigen

binding result: no binding
B1: sb106 Fab (Fab, V domains shown)
VH: EVQLVESGGGLVQPGGSLRLSCAASGFNISYYSIHWVRQAPGKGLEWVAYISPSYGYTSYADSVKGRFTISADTSKNTAYLQMNSLRAEDTAVYYCARYYVYASHGWAGYGMDYWGQGTLVTVSS
VL: DIQMTQSPSSLSASVGDRVTITCRASQSVSSAVAWYQQKPGKAPKLLIYSASSLYSGVPSRFSGSRSGTDFTLTISSLQPEDFATYYCQQAGYSPITFGQGTKVEIKR
notes: also called Fsb106; clone 48
